B1: extracellular portion of CD98 (212-630 of CD98hc) (domain or fragment)
chain: ELPAQKWWHTGALYRIGDLQAFQGHGAGNLAGLKGRLDYLSSLKVKGLVLGPIHKNQKDDVAQTDLLQIDPNFGSKEDFDSLLQSAKKKSIRVILDLTPNYRGENSWFSTQVDTVATKVKDALEFWLQAGVDGFQVRDIENLKDASSFLAEWQNITKGFSEDRLLIAGTNSSDLQQILSLLESNKDLLLTSSYLSDSGSTGEHTKSLVTQYLNATGNRWCSWSLSQARLLTSFLPAQLLRLYQLMLFTLPGTPVFSYGDEIGLDAAALPGQPMEAPVMLWDESSFPDIPGAVSANMTVKGQSEDPGSLLSLFRRLSDQRSKERSLLHGDFHAFSAGPGLFSYIRHWDQNERFLVVLNFGDVGLSAGLQASDLPASASLPAKADLLLSTQPGREEGSPLELERLKLEPHEGLLLRFPYAA

Tests used:
[1] = molecular target: domain 1 of CD147 with the K63A mutation (human, UniProt P35613-2 22-205, K63A); test: SPR
caveolin-1 protein [2] = molecular target: T1, caveolin-1 protein (UniProt Q03135 1-178); test: SPR
T1 chain: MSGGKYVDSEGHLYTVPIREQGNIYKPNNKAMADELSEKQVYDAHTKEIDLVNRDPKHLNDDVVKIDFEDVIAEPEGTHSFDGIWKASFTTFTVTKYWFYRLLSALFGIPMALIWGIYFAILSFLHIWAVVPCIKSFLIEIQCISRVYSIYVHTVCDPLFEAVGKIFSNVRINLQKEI

[3] = molecular target: B1; test: SPR
caveolin-1 protein [4] = molecular target: T1, caveolin-1 protein; test: SPR; in the presence of 5A12 antibody

B1
Kd [1]: 7490 nM

B2: extracellular portion of CD147 (ECD), amino acids 22–205 (domain or fragment)
chain: AAGTVFTTVEDLGSKILLTCSLNDSATEVTGHRWLKGGVVLKEDALPGQKTEFKVDSDDQWGEYSCVFLPEPMGTANIQLHGPPRVKAVKSSEHINEGETAMLVCKSESVPPVTDWAWYKITDSEDKALMNGSESRFFVSSSQGRSELHIENLNMEADPGQYRCNGTSSKGSDQAIITLRVRSH
Kd (caveolin-1 protein [2]): 35.7 nM
Kd [3]: 818 nM
Kd (caveolin-1 protein [4]): 14.9 nM

— publication PMC8632965 (2021)
